According to US20230312755A1 (ANGITIA, published 2023):

T1: human Sclerostin (human, UniProt Q9BQB4 24-213)
T1 sequence: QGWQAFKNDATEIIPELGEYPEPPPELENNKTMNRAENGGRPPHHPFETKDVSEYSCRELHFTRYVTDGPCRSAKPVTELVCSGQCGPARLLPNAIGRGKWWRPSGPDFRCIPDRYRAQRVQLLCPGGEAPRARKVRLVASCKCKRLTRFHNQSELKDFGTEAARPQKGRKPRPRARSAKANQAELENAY

T2: His-tagged human Sclerostin (NCBI reference No. NP_079513.1) (human, UniProt Q9BQB4 24-213)
T2 construct: also called mouse His-tagged human Sclerostin; not shown: His tag
T2 sequence: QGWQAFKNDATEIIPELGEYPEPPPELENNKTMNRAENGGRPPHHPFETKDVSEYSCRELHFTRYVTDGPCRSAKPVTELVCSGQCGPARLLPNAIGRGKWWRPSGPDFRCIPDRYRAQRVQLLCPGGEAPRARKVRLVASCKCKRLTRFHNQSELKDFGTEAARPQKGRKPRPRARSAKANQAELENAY

T3: cynomolgus monkey Sclerostin (cynomolgus monkey, UniProt Q9BG78 24-213 (Chlorocebus aethiops entry))
T3 chain: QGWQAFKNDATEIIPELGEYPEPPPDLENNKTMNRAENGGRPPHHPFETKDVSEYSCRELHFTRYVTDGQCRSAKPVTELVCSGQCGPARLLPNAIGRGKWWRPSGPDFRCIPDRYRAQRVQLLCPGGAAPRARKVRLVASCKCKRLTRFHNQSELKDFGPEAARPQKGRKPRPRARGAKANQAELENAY

B1: 81B2B6 (antibody, V domains shown)
VH: QVQLQQSGAELVRPGASVTLSCKASGYTFTDYEMHWVKQTPVHGLEWIGAIDPETGGTAYNQKFKAKAILTADRSSSTAYMELRSLTSEDSAVYYCFSYDYVSYWGQGTLVTVSA
VL: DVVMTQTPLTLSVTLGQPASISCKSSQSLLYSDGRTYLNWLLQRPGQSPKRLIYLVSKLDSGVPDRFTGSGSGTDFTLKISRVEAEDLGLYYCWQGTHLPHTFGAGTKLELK
notes: Murine monoclonal antibody from a hybridoma
B2: 84F2D5 (antibody, V domains shown)
VH: QVQLQQSGAELVRPGASVTLSCKASGYTFTDFEIHWLKQTPVPGLEWIGAIDPETGGTAYNQKFKGKALLTADKSSSTAYMELRSLTSEDSAVYYCFSYDYVSYWGQGTLVTVSA
VL: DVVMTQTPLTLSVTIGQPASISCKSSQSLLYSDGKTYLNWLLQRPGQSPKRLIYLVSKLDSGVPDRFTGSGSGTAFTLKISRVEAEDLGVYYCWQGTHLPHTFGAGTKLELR
notes: as for B1
B3: 71G6G8 (antibody, V domains shown)
VH: QAQLQQSGAELVRPGASVTLSCKASGYTFTDYEIHWVKQTPVHGLEWIGAIDPETGGTAYNQKFKGKAILTADRSSSTAYLELRSLTSEDSAVYYCFSYDYVTYWGQGTLVTVTA
VL: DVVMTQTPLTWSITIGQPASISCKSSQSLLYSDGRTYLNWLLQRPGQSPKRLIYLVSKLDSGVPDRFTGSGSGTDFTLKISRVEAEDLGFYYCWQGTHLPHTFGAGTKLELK
notes: Murine anti-Sclerostin monoclonal antibody
B4: 56E5C10 (antibody, V domains shown)
VH: QVQLQQSGAELVRPGASVTLSCKASGYTFTDFEMHWVKQTPVHGLEWIGAIDPETGGTAYNQKFTAKAILTADRSSSTAYMELRSLTSEDSAVYYCFSYDYVSYWGQGTLVTVSA
VL: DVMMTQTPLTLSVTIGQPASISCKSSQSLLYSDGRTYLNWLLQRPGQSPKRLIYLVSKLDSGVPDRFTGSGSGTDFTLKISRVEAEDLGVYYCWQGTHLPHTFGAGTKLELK
notes: as for B1
B5: 97C11D7 (antibody, V domains shown)
VH: QVQLQQSGAELVRPGASVTLSCKASGYTFTDYEMHWVKQTPVHGLEWIGAIDPETGGSANNQKFKAKAILTADRSSSTAYMELRSLTSEDSAVYYCFSYDYVSYWGQGTLVTVSA
VL: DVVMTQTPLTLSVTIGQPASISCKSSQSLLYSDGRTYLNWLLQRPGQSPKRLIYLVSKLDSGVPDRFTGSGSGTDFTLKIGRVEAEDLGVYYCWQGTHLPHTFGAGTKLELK
notes: as for B1
B6: hAb-1 (antibody, V domains shown)
VH: EVQLVQSGAEVKKPGASVKVSCKASGYTFTDYEIHWVRQAPGKGLEWMGAIDPETGGTAYNQKFKGRVTMTTDTSTSTAYMELRSLRSDDTAVYYCYSYDYVTYWGQGTTVTVSS
VL: DVVMTQSPLSLSVSPGERASLSCKSSQSLLYSDGRTYLNWYLQKPGQSPQRLIYLVSKLDSGVPDRFSGSGSGTDFTLKISRVQSEDVGVYYCWQGTHLPHTFGGGTKVEIK
notes: Humanized 93B1B7; also called humanized anti-Sclerostin antibody hAb-1
B7: hAb-3 (antibody, V domains shown)
VH: EVQLVQSGAEVKKPGASVKVSCKASGYTFTDYEIHWVRQAPGKGLEWMGAIDPETGGTAYNQKFKGRVTMTTDTSTSTAYMELRSLRSDDTAVYYCYSYDYVTYWGQGTTVTVSS
VL: DIQMTQSPSSLSASVGDRVTITCRSSQSLLYSDSRTYLNWLQQKPGKSPKRLIYLVSKLDSGVPDRFSGSGSGTDFTLTISSLQPEDFATYYCWQGTHLPHTFGGGTKVEIK

Tests used:
[1] = target: T1, human Sclerostin; assay: cell-based or functional assay
[2] = target: T2, His-tagged human Sclerostin (NCBI …); assay: ELISA, plate coated with His-tagged human Sclerostin
Procedure: The ability of antibodies to specifically bind Sclerostin was determined by an ELISA capture assay. Plates were coated, in a 96-well half-area, with 100 μl/well of mouse His-tagged human Sclerostin (NCBI reference No. is NP_079513.1) [[…]], in coating buffer (PBS, pH 7.4), and incubated at RT for one hour, or 4° C. overnight. The plates were washed once with 100 μl/well of washing solution (PBS containing 0.2% Tween20, BIO-RAD). Plates were then incubated in blocking solution (PBS containing 1% BSA, 1% goat serum and 0.5% Tween20; 100 μl/well) for one hour at room temperature (RT). Anti-Sclerostin antibodies at various concentrations (1000, 333.3, 111.1, 37.0, 12.3, 4.1, 1.4, 0.5, 0.15, 0.05 ng/ml), a positive control antibody Romosozumab or non-Sclerostin related IgG (human or rat IgG, negative control), were then added to each well in 20 μl/well of blocking solution, and plates were incubated at RT for one hour. NeutrAvidin HRP (Pierce, Catalog #31001) diluted in blocking solution (1:50,000 dilution) was added at to each well ([…]), and the plates were incubated at RT for one hour prior to three washes with […] of washing solution. SuperSignal ELISA Femto (ThermoFisher Scientific, Catalog #37074) working solution was added to the plates ([…]), and the signal was read using a luminometer at 425 nm.

[3] = target: T3, cynomolgus monkey Sclerostin; assay: BLI (Gator), antibody on anti-hFc biosensor, Sclerostin as analyte, 1:1 global fit
Procedure: (§1) The binding affinity of humanized anti-Sclerostin antibodies to human and cynomolgus monkey Sclerostin were determined with bio-layer interferometry using a Gator instrument (Probe Life). Antibodies were immobilized on an anti-hFc biosensor, using a […]. Serial dilutions of human Sclerostin and cynomolgus monkey Sclerostin from 4 μg/ml by two folds in kinetics buffer (PBS, pH 7.4, 0.05% Tween-20, 0.2% BSA, 10 μM biotin) were used as the analytes. Affinity (KD) and kinetic parameters (Kₒₙ and Koff) were calculated from a global fit (1:1) of the data using the Gator software.

[4] = target: T1, human Sclerostin; assay: as above
Procedure: as §1

Binder	EC50, Sclerostin-neutralisation activity in HEK293/TCF/LEF/Wnt1 cells (luciferase reporter) [1] [nM]	EC50 [2] [nM]	other results
B1	59.6	0.01	–
B2	59.4	0.02	–
B3	67.4	0.04	–
B4	64.2	0.09	–
B5	55.4	0.04	–
B6	13.9	–	Kd [3]: 0.18 nM; koff [3]: 0.000229 s⁻¹; kon [3]: 1.28e+06 M⁻¹ s⁻¹; Kd [4]: 0.41 nM; koff [4]: 0.0003 s⁻¹; kon [4]: 730000 M⁻¹ s⁻¹
B7	15.1	–	–
